Source: patent publication US20200283482A1, “BICYCLIC PEPTIDE LIGAND PRR-A CONJUGATES AND USES THEREOF” (BicycleRD Limited, priority 2017, published 2020)
Starred links: 1 amine or outer side, 2 acyl side, 3 side chain; linkers in the order of their positions; H or OH if unused. Positions of bridges follow the written chain, without caps; N, C: chain ends. Non-standard residues stand in square brackets, D forms with d. Residues, ends and D or L forms follow the SMILES beside them. *: point of attachment. X12 = CCOCc1nc2c(NC(=O)OCCN(C)C(=O)OCc3ccc(NC(=O)[C@H](CCCNC(N)=O)NC(=O)[C@@H](NC(=O)Cn4cc(CCC(=O)*)nn4)C(C)C)cc3)nc3ccccc3c2n1CC(C)(C)O; X7 = CCOCc1nc2c(NC(=O)CCCNC(=O)OCc3ccc(NC(=O)[C@H](CCCNC(N)=O)NC(=O)[C@@H](NC(=O)Cn4cc(CCC(=O)*)nn4)C(C)C)cc3)nc3ccccc3c2n1CC(C)(C)O; X6 = CCN(Cc1nc2c(N)nc3ccccc3c2n1CC(C)(C)O)C(=O)OCc1ccc(NC(=O)[C@H](CCCNC(N)=O)NC(=O)[C@@H](NC(=O)Cn2cc(CCC(=O)*)nn2)C(C)C)cc1; X4 = CCN(Cc1nc2c(N)nc3ccccc3c2n1CC(C)(C)O)C(=O)OCc1ccc(NC(=O)[C@H](CCCNC(N)=O)NC(=O)C2(C(=O)*)CCC2)cc1; X8 = CCOCc1nc2c(NC(=O)OCc3ccc(NC(=O)[C@H](CCCNC(N)=O)NC(=O)C4(C(=O)*)CCC4)cc3)nc3ccccc3c2n1CC(C)(C)O; X10 = CCCOc1nc(NC(=O)OCCSSC(C)CCC(=O)*)c2[nH]c(=O)n(Cc3ccc(OCCN(C)C)nc3)c2n1; 1Nal = N[C@@H](Cc1cccc2ccccc12)C(=O)O; TBMB = c1c(C[*:1])cc(C[*:3])cc1C[*:2]; X5 = O=C(CCc1cn(CCCN[*:1])nn1)[*:2]; Tle = CC(C)(C)[C@H](N)C(=O)O; βAla = NCCC(=O)O; Sar = CNCC(=O)O

What was measured:
Plasma stability, dog = format: in vitro ADME; details: pH 7.4; dog plasma, 2 μM, 37° C.; read-out: T1/2 (dog)
Description: (§1) The pooled frozen mouse, rat, dog, monkey or human plasma is thawed in a water bath at 37° C. prior to experiment. Plasma is centrifuged at 4000 rpm for 5 min and the clots are removed if any. […] For positive controls, 100 μM intermediate solution is prepared by diluting 20 μL of the stock solution with 180 μL 45% MeOH/H2O. […] For compounds I-7 to […]-17, […]-22, and […]-33, at each time point (0, 1, 2, 4, 6 and 24 hr), reactions were stopped by removing the plates from water bath and 200 μL 20 mM NH4OAC mix well first and then adding 800 μL of ice-cold stop solution (200 ng/mL Labetalol, 200 ng/mL Tolbutamide, 500 ng/mL N6-Ben and 40 mM DBAA in 100% Methanol). […] Sample plates were vortexed immediately on a plate shaker at 800 rpm for 10 min and then centrifuged at 4,000 rpm for 10 min. An aliquot of supernatant (200 μL) is transferred from each well before submitting to LC-MS/MS analysis. The percentage of test compound remaining at the individual time points relative to the 0 hour sample is calculated using following equation: Percent Remaining=100×(PAR at appointed incubation time/PAR at T0 time) where PAR is the peak area ratio of analyte versus internal standard (IS).

Plasma stability, rat = format: in vitro ADME; details: pH 7.4
Description: as §1

Plasma stability, mouse = format: in vitro ADME; details: pH 7.4
Description: as §1

Plasma stability, human = format: in vitro ADME; details: pH 7.4
Description: as §1

Plasma stability, cyno = format: in vitro ADME; details: cynomolgus monkey, pH 7.4
Description: as §1

Blood stability, mouse = format: in vitro ADME, CD-1 mouse; details: male, CD-1, mouse
Description: CD-1 mouse blood (n≥2, male, fasted overnight) is collected from animals housed at an internal facility. (EDTA-K2 is used as anticoagulant)
The test compounds and positive control stock solutions are prepared to 10 mM in DMSO or ultrapure water. Control compounds bisacodyl, enalapril and propantheline known to be metabolised by blood are also incubated alongside each batch of test compounds I-7, I-22, I-24, I-25, I-27, and I-29 to I-33. The dosing solutions of test compounds and controls are prepared by diluting the stock solution with 45% MeOH/H2O to achieve 100 uM. Test compound solutions (final incubation concentration=2 μM) are incubated with blood (final DMSO concentration≤1%) at six different time points (0, 1, 2, 4, 6 and 24 hours) in duplicate (n=2). The reaction is terminated by adding 100 uL ultra-pure water, mixing well, then adding 800 uL of 100% methanol containing 200 ng/mL tolbutamide and 200 ng/mL labetalol as internal standards. Samples are then vortexed and centrifuged at 3200×g for 20 minutes. Following centrifugation, the concentration of test compound in the supernatant is determined semi-quantitatively by LC-MS/MS. The percentage of test compound remaining at the individual time points relative to the 0 hour sample is then reported. The percent remaining of test compound after incubation in blood is calculated using following equation: Percent Remaining=100×(PAR at appointed incubation time/PAR at T0 time) where PAR is the peak area ratio of analyte versus internal standard (IS).

Row | SMILES | half-life at 2 μM (Plasma stability, dog) | half-life at 2 μM (Plasma stability, rat; rat plasma, 2 μM, 37° C., read-out: T1/2 (rat)) | half-life at 2 μM (Plasma stability, mouse; mouse plasma, 2 μM, 37° C., read-out: T1/2 (mouse)) | half-life at 2 μM (Plasma stability, human; human plasma, 2 μM, 37° C., read-out: T1/2 (human)) | half-life at 2 μM (Plasma stability, cyno; cyno plasma, 2 μM, 37° C., read-out: T1/2 (cyno)) | half-life at 2 μM (Plasma stability, rat; rat, plasma) | half-life at 2 μM (Plasma stability, mouse; mouse, plasma) | half-life at 2 μM (Blood stability, mouse) | half-life at 2 μM (Plasma stability, human; human, plasma) | half-life at 2 μM (Plasma stability, cyno; plasma)
1 | CCCOc1nc(NC(=O)OCCSSC(C)CCC(=O)NCCC(=O)N(C)CC(=O)N(C)CC(=O)N(C)CC(=O)N(C)CC(=O)N(C)CC(=O)N(C)CC(=O)N(C)CC(=O)N(C)CC(=O)N(C)CC(=O)N(C)CC(=O)N[C@@H](C)C(=O)N[C@H]2CSCc3cc4cc(c3)CSC[C@H](NC(=O)[C@@H](C)NC(=O)[C@H](Cc3cccc5ccccc35)NC(=O)[C@H](CCC(=O)O)NC(=O)[C@H](CC(N)=O)NC(=O)[C@@H](C)NC2=O)C(=O)N[C@@H](CCC(=O)O)C(=O)N[C@@H](CC(=O)O)C(=O)N[C@@H](Cc2ccccc2)C(=O)N[C@@H](Cc2ccc(O)cc2)C(=O)N[C@@H](CC(=O)O)C(=O)N[C@@H](C(C)(C)C)C(=O)N[C@H](C(N)=O)CSC4)c2[nH]c(=O)n(Cc3ccc(OCCN(C)C)nc3)c2n1 (stereo partly drawn) [I-17] ({X10-βAla}-[Sar][Sar][Sar][Sar][Sar][Sar][Sar][Sar][Sar][Sar]AC[dA]NE[1Nal][dA]CEDFYD[Tle]C-NH2; linker 12-18-25 via TBMB) | < 2 h | < 2 h | < 2 h | < 2 h | < 2 h |  |  |  |  | 
2 | CCOCc1nc2c(NC(=O)CCCNC(=O)OCc3ccc(NC(=O)[C@H](CCCNC(N)=O)NC(=O)[C@@H](NC(=O)Cn4cc(CCC(=O)NCCC(=O)N(C)CC(=O)N(C)CC(=O)N(C)CC(=O)N(C)CC(=O)N(C)CC(=O)N(C)CC(=O)N(C)CC(=O)N(C)CC(=O)N(C)CC(=O)N(C)CC(=O)N[C@@H](C)C(=O)N[C@H]5CSCc6cc7cc(c6)CSC[C@H](NC(=O)[C@@H](C)NC(=O)[C@H](Cc6cccc8ccccc68)NC(=O)[C@H](CCC(=O)O)NC(=O)[C@H](CC(N)=O)NC(=O)[C@@H](C)NC5=O)C(=O)N[C@@H](CCC(=O)O)C(=O)N[C@@H](CC(=O)O)C(=O)N[C@@H](Cc5ccccc5)C(=O)N[C@@H](Cc5ccc(O)cc5)C(=O)N[C@@H](CC(=O)O)C(=O)N[C@@H](C(C)(C)C)C(=O)N[C@H](C(N)=O)CSC7)nn4)C(C)C)cc3)nc3ccccc3c2n1CC(C)(C)O [I-27] ({X7-βAla}-[Sar][Sar][Sar][Sar][Sar][Sar][Sar][Sar][Sar][Sar]AC[dA]NE[1Nal][dA]CEDFYD[Tle]C-NH2; linker 12-18-25 via TBMB) |  |  |  |  |  | > 24 h | < 2 h | 2 to 6 h | > 24 h | > 24 h
3 | CCOCc1nc2c(NC(=O)OCc3ccc(NC(=O)[C@H](CCCNC(N)=O)NC(=O)C4(C(=O)NCCCn5cc(CCC(=O)NCCC(=O)N(C)CC(=O)N(C)CC(=O)N(C)CC(=O)N(C)CC(=O)N(C)CC(=O)N(C)CC(=O)N(C)CC(=O)N(C)CC(=O)N(C)CC(=O)N(C)CC(=O)N[C@@H](C)C(=O)N[C@H]6CSCc7cc8cc(c7)CSC[C@H](NC(=O)[C@@H](C)NC(=O)[C@H](Cc7cccc9ccccc79)NC(=O)[C@H](CCC(=O)O)NC(=O)[C@H](CC(N)=O)NC(=O)[C@@H](C)NC6=O)C(=O)N[C@@H](CCC(=O)O)C(=O)N[C@@H](CC(=O)O)C(=O)N[C@@H](Cc6ccccc6)C(=O)N[C@@H](Cc6ccc(O)cc6)C(=O)N[C@@H](CC(=O)O)C(=O)N[C@@H](C(C)(C)C)C(=O)N[C@H](C(N)=O)CSC8)nn5)CCC4)cc3)nc3ccccc3c2n1CC(C)(C)O [I-29] (X8-[X5][βAla][Sar][Sar][Sar][Sar][Sar][Sar][Sar][Sar][Sar][Sar]AC[dA]NE[1Nal][dA]CEDFYD[Tle]C-NH2; linker 14-20-27 via TBMB) |  |  |  |  |  | 6 to 24 h | > 24 h | < 2 h | > 24 h | > 24 h
4 | CCN(Cc1nc2c(N)nc3ccccc3c2n1CC(C)(C)O)C(=O)OCc1ccc(NC(=O)[C@H](CCCNC(N)=O)NC(=O)C2(C(=O)NCCCn3cc(CCC(=O)NCCC(=O)N(C)CC(=O)N(C)CC(=O)N(C)CC(=O)N(C)CC(=O)N(C)CC(=O)N(C)CC(=O)N(C)CC(=O)N(C)CC(=O)N(C)CC(=O)N(C)CC(=O)N[C@@H](C)C(=O)N[C@H]4CSCc5cc6cc(c5)CSC[C@H](NC(=O)[C@@H](C)NC(=O)[C@H](Cc5cccc7ccccc57)NC(=O)[C@H](CCC(=O)O)NC(=O)[C@H](CC(N)=O)NC(=O)[C@@H](C)NC4=O)C(=O)N[C@@H](CCC(=O)O)C(=O)N[C@@H](CC(=O)O)C(=O)N[C@@H](Cc4ccccc4)C(=O)N[C@@H](Cc4ccc(O)cc4)C(=O)N[C@@H](CC(=O)O)C(=O)N[C@@H](C(C)(C)C)C(=O)N[C@H](C(N)=O)CSC6)nn3)CCC2)cc1 [I-30] (X4-[X5][βAla][Sar][Sar][Sar][Sar][Sar][Sar][Sar][Sar][Sar][Sar]AC[dA]NE[1Nal][dA]CEDFYD[Tle]C-NH2; linker 14-20-27 via TBMB) |  |  |  |  |  | > 24 h | > 24 h | 6 to 24 h | > 24 h | > 24 h
5 | CCOCc1nc2c(NC(=O)OCCN(C)C(=O)OCc3ccc(NC(=O)[C@H](CCCNC(N)=O)NC(=O)[C@@H](NC(=O)Cn4cc(CCC(=O)NCCC(=O)N(C)CC(=O)N(C)CC(=O)N(C)CC(=O)N(C)CC(=O)N(C)CC(=O)N(C)CC(=O)N(C)CC(=O)N(C)CC(=O)N(C)CC(=O)N(C)CC(=O)N[C@@H](C)C(=O)N[C@H]5CSCc6cc7cc(c6)CSC[C@H](NC(=O)[C@@H](C)NC(=O)[C@H](Cc6cccc8ccccc68)NC(=O)[C@H](CCC(=O)O)NC(=O)[C@H](CC(N)=O)NC(=O)[C@@H](C)NC5=O)C(=O)N[C@@H](CCC(=O)O)C(=O)N[C@@H](CC(=O)O)C(=O)N[C@@H](Cc5ccccc5)C(=O)N[C@@H](Cc5ccc(O)cc5)C(=O)N[C@@H](CC(=O)O)C(=O)N[C@@H](C(C)(C)C)C(=O)N[C@H](C(N)=O)CSC7)nn4)C(C)C)cc3)nc3ccccc3c2n1CC(C)(C)O [I-32] ({X12-βAla}-[Sar][Sar][Sar][Sar][Sar][Sar][Sar][Sar][Sar][Sar]AC[dA]NE[1Nal][dA]CEDFYD[Tle]C-NH2; linker 12-18-25 via TBMB) |  |  |  |  |  | < 2 h | < 2 h | < 2 h | > 24 h | > 24 h
6 | CCN(Cc1nc2c(N)nc3ccccc3c2n1CC(C)(C)O)C(=O)OCc1ccc(NC(=O)[C@H](CCCNC(N)=O)NC(=O)[C@@H](NC(=O)Cn2cc(CCC(=O)NCCC(=O)N(C)CC(=O)N(C)CC(=O)N(C)CC(=O)N(C)CC(=O)N(C)CC(=O)N(C)CC(=O)N(C)CC(=O)N(C)CC(=O)N(C)CC(=O)N(C)CC(=O)N[C@@H](C)C(=O)N[C@H]3CSCc4cc5cc(c4)CSC[C@H](NC(=O)[C@@H](C)NC(=O)[C@H](Cc4cccc6ccccc46)NC(=O)[C@H](CCC(=O)O)NC(=O)[C@H](CC(N)=O)NC(=O)[C@@H](C)NC3=O)C(=O)N[C@@H](CCC(=O)O)C(=O)N[C@@H](CC(=O)O)C(=O)N[C@@H](Cc3ccccc3)C(=O)N[C@@H](Cc3ccc(O)cc3)C(=O)N[C@@H](CC(=O)O)C(=O)N[C@@H](C(C)(C)C)C(=O)N[C@H](C(N)=O)CSC5)nn2)C(C)C)cc1 [I-33] ({X6-βAla}-[Sar][Sar][Sar][Sar][Sar][Sar][Sar][Sar][Sar][Sar]AC[dA]NE[1Nal][dA]CEDFYD[Tle]C-NH2; linker 12-18-25 via TBMB) |  |  |  |  |  | > 24 h | 6 to 24 h | 6 to 24 h | > 24 h | > 24 h
